From US20230242956A1, “POLYPHOSPHATE KINASE MUTANT, ENGINEERED STRAIN AND APPLICATION THEREOF” (ZHEJIANG UNIVERSITY OF TECHNOLOGY, priority 2022, published 2023)

Tests used:
[1] = substrate: Nc1ncnc2c1ncn2[C@@H]1O[C@H](COP(=O)(O)O)[C@@H](O)[C@H]1O; assay: Kinetic parameters of wild-type ChPPK (pure enzyme, pseudo-one-substrate kinetic model, ATP by HPLC); format: biochemical, Cytophaga hutchinsonii; conditions: other: substrate AMP, fixed PPA 1.6 g/L, AMP 0-5.0 mM, pH 7.5, 37° C.
Procedure: A PPK protein sequence derived from Cytophaga hutchinsonii (ChPPK, GenBank accession number: ABG57400.1) in GenBank was optimized for E. coli codon preference and fused to a C-terminal 6His tag. The resulting recombinant sequence of the gene ChPPK with a length of 930 bp was synthesized by Tsingke Biotechnology Co., Ltd. (Beijing, China), the nucleotide sequence is shown in SEQ ID NO: 1, and the amino acid sequence of the encoded protein is shown in SEQ ID NO: 2.
(2) Pure enzyme: 5 mL of the crude enzyme solution was diluted with 40 mL of potassium phosphate buffer (20 mM, pH 7.2), and then applied to a HisTrap HP purification column of GE Healthcare (10 mL column, pre-washed with a pH 7.2, 20 mM potassium phosphate buffer containing 500 mM NaCl). […] The concentration of the pure enzyme was determined by Beyotime BCA Protein Assay Kit(P0012), and the amount of the pure enzyme used in the following examples was calculated by protein content.
0.4 mg of the crude enzyme solution prepared by the method in Example 2 or 0.05 mg of the pure enzyme, polyphosphoric acid (PPA) at a final concentration of 1.6 g/L, adenosine phosphate (AMP) at a final concentration of 2.25 mM, and MgCl2 at a final concentration of 10 mM were added to 10 mL of 50 mM potassium phosphate buffer (pH 7.5). […] The ATP content in the solution was determined by HPLC method. […]
(§1) The wild-type Ecoli.BL21(DE3)-ChPPK constructed by the method of Example 1 and the engineered strain Ecoli.BL21(DE3)-ChPPK/A79G/S106C/I108F/L285P constructed by the method of Example 6 were used to prepare pure enzymes by the method of Example 2. Km and Kcat were calculated by pseudo-one-substrate kinetic model. […]

[2] = substrate: Nc1ncnc2c1ncn2[C@@H]1O[C@H](COP(=O)(O)O)[C@@H](O)[C@H]1O; assay: Kinetic parameters of mutant ChPPK/A79G/S106C/I108F/L285P (pure enzyme, pseudo-one-substrate kinetic model, ATP by HPLC); format: biochemical, Cytophaga hutchinsonii; conditions: other: substrate AMP, fixed PPA 1.6 g/L, AMP 0-5.0 mM, pH 7.5, 37° C.
Procedure: (2) Pure enzyme: 5 mL of the crude enzyme solution was diluted with 40 mL of potassium phosphate buffer (20 mM, pH 7.2), and then applied to a HisTrap HP purification column of GE Healthcare (10 mL column, pre-washed with a pH 7.2, 20 mM potassium phosphate buffer containing 500 mM NaCl). The resulting purification column was eluted with 100 mL of washing buffer (a pH7.2, 20 mM potassium phosphate buffer containing 500 mM sodium chloride and 50 mM imidazole) at a rate of 0.5 mL/min to remove the absorbed protein impurities, and then eluted with an elution buffer (a pH7.2, 20 mM potassium phosphate buffer containing 500 mM sodium chloride and 50 mM imidazole) at a speed of 0.5 mL/min to collect an elution solution containing the target protein. Then the elution solution containing the target protein was dialyzed in a dialysis bag (the MWCO of the dialysis bag was 14 KDa) with a pH7.2 of 20 mM potassium phosphate buffer for 48h, and the retentate was taken as pure enzyme. The concentration of the pure enzyme was determined by Beyotime BCA Protein Assay Kit(P0012), and the amount of the pure enzyme used in the following examples was calculated by protein content.
0.4 mg of the crude enzyme solution prepared by the method in Example 2 or 0.05 mg of the pure enzyme, polyphosphoric acid (PPA) at a final concentration of 1.6 g/L, adenosine phosphate (AMP) at a final concentration of 2.25 mM, and MgCl2 at a final concentration of 10 mM were added to 10 mL of 50 mM potassium phosphate buffer (pH 7.5). The reaction solution was incubated at 37° C. for 5 min, and then 10 mL of 0.2 M phosphoric acid solution was added to terminate the reaction. The ATP content in the solution was determined by HPLC method. […]
as §1

Row | Protein | Km [1] [mM] | kcat [1] [s⁻¹] | kcat/Km [1] [M⁻¹ s⁻¹] | Km [2] [mM] | kcat [2] [s⁻¹] | kcat/Km [2] [M⁻¹ s⁻¹]
1 | Cytophaga hutchinsonii polyphosphate kinase (ChPPK), wild-type, C-terminal 6His tag, SEQ ID NO: 2 (Cytophaga hutchinsonii ATCC 33406) (protein) MATDFSKLSKYVETLRVKPKQSIDLKKDFDTDYDHKMLTKEEGEELLNLGISKLSEIQEKLYASGTKSVLIVFQAMDAAGKDGTVKHIMTGLNPQGVKVTSFKVPSKIELSHDYLWRHYVALPATGEIGIFNRSHYENVLVTRVHPEYLLSEQTSGVTAIEQVNQKFWDKRFQQINNFEQHISENGTIVLKFFLHVSKKEQKKRFIERIELDTKNWKFSTGDLKERAHWKDYRNAYEDMLANTSTKQAPWFVIPADDKWFTRLLIAEIICTELEKLNLTFPTVSLEQKAELEKAKAELVAEKSSDHHHHHH | 1.66 ± 0.10 | 1.01 ± 0.05 | 610 |  |  | 
2 | Cytophaga hutchinsonii polyphosphate kinase (ChPPK) mutant A79G/S106C/I108F/L285P (parent SEQ ID NO: 2) (Cytophaga hutchinsonii ATCC 33406; … (protein) MATDFSKLSKYVETLRVKPKQSIDLKKDFDTDYDHKMLTKEEGEELLNLGISKLSEIQEKLYASGTKSVLIVFQAMDAGGKDGTVKHIMTGLNPQGVKVTSFKVPCKFELSHDYLWRHYVALPATGEIGIFNRSHYENVLVTRVHPEYLLSEQTSGVTAIEQVNQKFWDKRFQQINNFEQHISENGTIVLKFFLHVSKKEQKKRFIERIELDTKNWKFSTGDLKERAHWKDYRNAYEDMLANTSTKQAPWFVIPADDKWFTRLLIAEIICTELEKLNLTFPTVSPEQKAELEKAKAELVAEKSSDHHHHHH |  |  |  | 1.67 ± 0.18 | 16.3 ± 1.78 | 9780
